# Changes are numbered by the printed parent chain.
# B1: ADI-41156 (antibody, V domains shown)
# VH: QVQLVQSGGGLVQPGGSLRLSCVASGFIFSSYEMNWVRQAPGKGLEWVSYISSSGSTIYYADSVKGRFTISRDNAKNSLYLQMNSLGAEDTAVYYCARAILYFDYWGQGTLVTVSS
# VL: GIRLTQSPSSLSASVGDRVTITCRASQSITNYINWYQQKPGKAPKLLIYAISRLQSGVPSRFSGSGSGTDFTLTISSLQPEDFATYYCQQSYSTMYTFGQGTKVEIK
# B2: ADI-41308 (antibody, V domains shown)
# VH: EVQLVESGPGLVKPSQTLSLTCAISGDSVSSNSAAWNWIRQSPSRGLERMGRTYYRSKWYDDYAVSVKSRIIINPDTSKNQFSLQLNSVTPEDTAVYYCARGISTFGGVIYALEIWGQGTMVTVSS
# VL: SYVLTQPASVSGSPGQSITISCTGLTSDVGGYNFVSWYQQHPGKAPKLIIYDVSHRPSGVSNRFSGSESGNTASLTISGLQAEDEAHYYCSSYTRTSIVVFGGGTKLTVL
# B3: ADI-41324 (antibody, V domains shown)
# VH: EVQLVESGGGLVQPGGSLRLSCAASGFTVSNNYMRWVRQAPGKGLEWVSVIYSSGSTDYADSVKGRFTISRDNSKNTLYLQMNSLRAEDTAVYYCARERTLFYYDSSGFFDYWGQGTLVTVSS
# VL: ETTLTQSPGTLSLSPGERATLSCRASQSVDSSYLAWYQQKPGQAPRLLIYGASNRATGIPDRFSGSGSGTDFTLTISRLEPEDFAVYYCQQYGRSLTFGGGTKLEIK
# B4: ADI-41304 (antibody, V domains shown)
# VH: EVQLVESGPGLVKPSQTLSLTCTVSGGSIRSHDYYWSWIRQPPGKGLEWIGYSYYSGSTYYNPSLKSRVIISLDTSKNQFSLNLTSVTAADTAMYYCARDRPHTSSWIPGWFDPWGQGTLVTVSS
# VL: SYELTQPPSASGTPGQRVTISCSGSSSNIGSNTVSWYQQFPGKAPKLLIYSNNERPSGGPDRFSGSKSGTSASLAIGGLQSEDEANYYCAAWDDSLYAVVFGGGTKLTVL
# B5: ADI-41342 (antibody, V domains shown)
# VH: QVQLVQSGAEVKKPGSSVKVSCKASGGTLTSYGVSWVRQAPGQGLEWMGGIIPIFGTVDYAQKFQGRVTITADEPTSTAYMELSSLTSDDTAVYYCARDPWVSGPVEFYYYFDVWGRGTLVTVSS
# VL: DIVLTESPATLSLSPGERATLSCRASQSINNRYLAWYQQKPGQAPRLLIFGASSRATGIPDRFSGSGSGTDFTLTISRLEPEDFAVYYCQQYGSTPPTFGQGTKVEIK
# B6: ADI-41318 (antibody, V domains shown)
# VH: EVQLLESGAEVKKPGSSVRVSCKAFGGTFSSYAFSWVRQAPGQGLEWMGGITPMFGTENYAPNFQGRVTITADKLTTTVYMELSRLRSEDSAVYYCAREGGRLGTTMGAFDMWGQGTMVTVSS
# VL: DIRLTQSPSSLSASVGDRVTITCRASHGISSALAWYQQRPGRVPQVLIFHASTLESGVPSRFSGSGSGTDFTLTISSLQPEDFATYYCQQFNSYPYTFGQGTKVEIK
# B7: ADI-41316 (antibody, V domains shown)
# VH: QVQLVQSGGGVVQPGRSLRLSCAASGFTFNNYGMHWVRQAPGKGLEWVAVLSFDGINKYYADSARGRFTISRDNSKNTLYLQMNSLRAEDTALYYCAKDRQEYSSGWTHDACDIWGQGTMVTVSS
# VL: EIVMTQSPATLSVSPGERATLSCRASQNVNNNLAWYQQNPGQAPRLLIFGASTRATGIPARFSGSGSGTEFTLTISSLQSEDFAVYYCQQYNNWPRTFGQGTKLEIK
# B8: ADI-41315 (antibody, V domains shown)
# VH: EVQLLESGPGLVKPSETLSLTCAVSGGSISNYYWSWIRQPPGKGLEWIAYISYSGTTNYNPSLESRVTISVDTSKNQFSLKLNSVTAADTAVYYCARHEFLVLPDVWGQGTLVTVSS
# VL: ETTLTQSPGTLSLSPGERATLSCRASQSVSSTFLAWYQQKPGQAPRLLIYAASSRATGIPDRFSGSGSGTDFTLIISRLEPEDFAVYYCQQYRSSPFSFGPGTKVEIK
# B9: ADI-41323 (antibody, V domains shown)
# VH: EVQLLESGGGVVRPGGSLRLSCAASGFTFDDYAMGWVRQAPGKGLEWVSGITWNAGSTAYAGSVKGRFTISRDNAKNSLFLQMNSLRAEDTAFYLCARHVDSSGPVARHFDYWGQGTLVTVSS
# VL: NFMLTQPHSVSESPGKTVTISCTRSSGSIARNYVQWYQQRPGSAPTIVIYEDNQRPSGVPDRFSGSIDSSSNSASLTISGLKTEDEADYYCQSYDPSNVVFGGGTKLTVL
# B10: ADI-41346 (antibody, V domains shown)
# VH: QVQLVQSGPEVKKPGESLKISCTLSASGLTTYWIGWVRQMPAKGLEWMGIIFPGDSDTRYSPSFQGQVTISADKSTNTAYLQWSGLKASDTAIYYCATLQTPVTGLDQWGQGTLVTVSS
# VL: B9 VL with S28N, N32S, I47T, Y50H, N53D, S69T, V99Y, G103T, L107V
# B11: ADI-41345 (antibody, V domains shown)
# VH: EVQLVQSGAEVRKPGESLKISCKGSGYNFASYWIAWVRQMPGKGLEWMGIIFPGDSDTRYSPSFQGQVTISVDKSISTAYLQWSSLKASDTAIYYCATSKYTFGYLDWGQGTLVTVSS
# VL: B9 VL with R31S, I47T, P96T, V99Q, G103T, L107V
# B12: ADI-41306 (antibody, V domains shown)
# VH: QVQLVESGPRLVKPSQTLSLTCTVSGGSIYRGDYDWNWIRQPPGKGLEWIGYISYTGNTHYNSSLKSRLSISADTSGTHFSLKLSSVTAADTAIYYCARDVGYGGNAAHYYYYAMDVWGQGTTVTVSS
# VL: ETTLTQSPATLSLSPGERATLSCRASQSVGSSLAWYQQKVGQAPRLLIYDASSRVTGIPARFSGSGSGTDFTLTISSLEPGDFAVYYCQQRSNSLTFGGGTKVEIK
# B13: ADI-41341 (antibody, V domains shown)
# VH: QVQLVQSGAEVKKPGSSVKVSCKASGGTFSSYATHWVRQAPGQGLEWMGGIIPIFGRATYAQKFQGRVTISADESTSTAYMELSSLRSEDTAVYYCARGRDDRSGDHIAFLYHYGMDVWGQGSTVTVSS
# VL: QSVLTQPPSVSAAPGQKVSISCSGSSSNIGINHASWYQHLPGTAPKLLIYDNNKRPSGIPDRFSGSKSGTSATLGISGLQTGDEAAYYCGTWDTGLSAVVFGGGTKLTVL
# B14: ADI-41309 (antibody, V domains shown)
# VH: EVQLLESGPGLVKPSQTLSLTCTVSGGSISSGDYYWSWVRQPPGKGLEWIGNIYHSGSTYYKPSLKSRVSISLDTSKNQFSLKLSSVTAADTAIYYCARDGGENYVWGTFRFLDVWGQGTTVTVSS
# VL: DIRLTQSPGTLSLSPGERATLSCRASQSVSSSYLAWYQQKPGQAPRLLIYGVSSRATGIPDRFSGSGSGTDFTLTINRLEPEDFALYHCQQYGSSPHTFGQGTKVEIK
# B15: ADI-41314 (antibody, V domains shown)
# VH: QVQLVQSGAEVKKPGSSVKVSCKAFGGIFSSYAISWVRQAPGQGLEWMGGIIPIFGTTKYAQKFQGRVTITADKSTSTVYMEVSSLRFEESAVYFCARAYCSGGTWYGGADYWGQGTLVTVSS
# VL: QSVLTQPPSVSVSPGQTARITCSGDVLPKQYAYWYQQKPGQAPLLVMYKDTERPSGIPERFSGSSSVTAVTLTISGVQAEDEADYYCQSADSTQELFGGGTKLTVL
# B16: ADI-41311 (antibody, V domains shown)
# VH: QVTLKQSGPALVKPTQTLTLTCTFSGFSLSTKRMGVSWIRQPPGKALEWLARIDWDDDKYYSTSLRTRLTISKDTSKNQVVLTMTDMDPVDTATYYCARIQPYTSGGYYSYYFDYWGQGTLVTVSS
# VL: DIQVTQSPSSLSASIGDRVTITCRASQTIASYLNWYQQKPGKAPKLLIYIASSLQSGVPSRFSGSGSGTDFTLTISTLQPEDFATYYCQQSYGTPWTFGQGTKVEIK
# B17: ADI-41313 (antibody, V domains shown)
# VH: EVQLVESGAEVKKPGASVKVSCKASGYTFNNYDISWVRQAPGQGLEWMGWISTYNGNTNYAQKFQGRATMTTDTSTTTAYMELRSLRSDDSAIYYCARVYCGGDCHNPFFLYFDLWGRGTLVTVSS
# VL: SYVLTQPLSVSVALGQTARITCGGNNIGSKSVHWYQQKPGQAPLLVIYRDNNRPSGIPERFSGSTSGNTATLTISRAQAGDEADYSCQVWDNSDWVFGGGTKLTVL
# B18: ADI-41307 (antibody, V domains shown)
# VH: QVQLVESGGGLVKPGGSLRLSCAASGFPLSPYALNWVRQAPGKGLEWVSSITSSSAYIYYADSVKGRFTVSRDNPTNSLYLQMNSLRAEDTAVYYCARTIPQHYYDNNGDYYNYGMDVWGQGTTVTVSS
# VL: DIVLTQSPATLSVSPGQRITLSCRASQTVRSNLAWYQQKPGQPPRLLIYGASTRATGVPARFTGSGSGTEFTLTITSLQSDDFAVYYCHQYNDRPLTFGPGTKVEIK
# B19: ADI-41347 (antibody, V domains shown)
# VH: EVQLVESGPGLVKPSGTLSLTCAVSGGSVSSDNWWSWVRQPPGKGIEWIGEIYPSGGTNYNPSLNSRVTISVDKSKNQFSLKLNSVTAADTAIYYCARAPFDSSGYHSNSVWGQGTLVTVSS
# VL: ETTLTQSPLSLPVTPGEPASISCRSSQSLLHSNGHNYLDWYVQKPGQSPQLLIYLSSNRASGVPDRFSGSGSGTDFTLRISRVEAEDVGVYYCMQPLQTPQTFGQGTKVEIK
# B20: ADI-41303 (antibody, V domains shown)
# VH: QVQLVQSGGGLVRPGGSLRVSCAASGFIFNNYALTWVRQAPGKGLEWVSAISGSGSSTYYADSVKGRFTISRENSNNRLYLQLSGLRAEDTAVYFCARVRGLVWFEGRIDPYPNVFDYWGQGTLVTVSS
# VL: DIVLTQSPGTLSLSPGERATLSCRASQSVSNDYLAWYQQKPGQAPRLLIYDASSRAIGIPDRFSGSGSGTDFTLIISRLEPEDFAVYYCHHPGKFGQGTKVEIK
# Molecular target: RSV postfusion F (postF), F deltaFP (Respiratory Syncytial Virus)
# Test: BLI, IgG on anti-human IgG sensor, 100 nM antigen
row,Binder,Kd [nM]
1,B1,1.7

# Molecular target: Respiratory Syncytial Virus fusion glycoprotein (RSV F) on RSV-A2 virus (Respiratory Syncytial Virus subtype A (RSV-A2))
# Test: cell-based or functional assay
row,Binder,Neutralization IC50 (RSV subtype A) [µg/mL]
1,B1,> 25

# Molecular target: RSV postfusion F (postF, F deltaFP) (Respiratory syncytial virus)
# Test: BLI, IgG on sensor, 100 nM antigen
row,Binder,Kd [nM]
1,B2,0.519
2,B3,0.426
3,B4,0.33
4,B5,0.591
5,B6,35.4
6,B7,1.05
7,B8,1.03
8,B9,0.331
9,B10,0.267
10,B11,0.349
11,B12,0.454
12,B13,1.97
13,B14,1.36
14,B15,0.414
15,B16,0.524
16,B17,0.342
17,B18,0.83
18,B19,0.521
19,B20,0.944

# Molecular target: RSV prefusion F (preF, DS-Cav1) (Respiratory syncytial virus)
# Test: BLI, IgG on sensor, 100 nM antigen
row,Binder,Kd [nM]
1,B2,4
2,B3,2.47
3,B4,0.338
4,B5,3.99
5,B6,426
6,B7,3.74
7,B8,2.93
8,B9,1.95
9,B10,1.88
10,B11,2.29
11,B12,0.462
12,B13,2.83
13,B14,4.34
14,B15,2.41
15,B16,0.754
16,B17,0.455
17,B18,2.99
18,B19,2.6
19,B20,2.96

# From patent US20260258115A1
